{
  "source": "paper PMC6450606",
  "about": "“Purification and biochemical characterization of FrsA protein from Vibrio vulnificus as an esterase” (PLoS ONE, 2019)",
  "proteins": {"B1": {"name": "Fermentation-respiration switch protein (FrsA) from Vibrio vulnificus (enzyme, UniProt Q7MN61 1-415, looked up)", "chain": "MSEEVSKNLSETLFVKHKQAKETSALTQYMPTSQSLLDEIKEKNGFSWYRNLRRLQWVWQGVDPIEQEQVLARIASSKHSRTDEQWLDTVMGYHSGNWAYEWTRLGMEHQKRAGEMTNEAASEALFSASLCYSIAGYPHLKSDNLAIQAQVLANSAYLEAAKKSKYIIKQLEIPFEKGKITAHLHLTNTDKPHPVVIVSAGLDSLQTDMWRLFRDHLAKHDIAMLTVDMPSVGYSSKYPLTEDYSRLHQAVLNELFSIPYVDHHRVGLIGFRFGGNAMVRLSFLEQEKIKACVILGAPIHDIFASPQKLQQMPKMYLDVLASRLGKSVVDIYSLSGQMAAWSLKVQGFLSSRKTKVPILAMSLEGDPVSPYSDNQMVAFFSTYGKAKKISSKTITQGYEQSLDLAIKWLEDELLR", "notes": "FrsA (fermentation-respiration switch protein) of Vibrio vulnificus; theoretical mass ca. 47 kDa; Gene cloned between NdeI and XhoI of pET-28a; also called VvFrsA; recombinant VvFrsA"}},
  "biological_target": "the molecule itself",
  "assay": "SEC; native mass of purified VvFrsA by size exclusion chromatography, buffer and concentration not told",
  "data": [
    {"protein": "B1", "values": [
      {"measurement": "stoichiometry N", "value": 2}
    ]}
  ]
}
